The target of assay [1] is gC1qR, wild type, mature recombinant (receptor for the globular heads of C1q) (UniProt Q07021). As to the kind of experiment: SPR; gC1qR-WT or gC1qR-ΔΔ immobilised; two-fold dilution series of analyte injected; reference-corrected sensorgrams fit to kinetic models; apparent KD. For orientation: SPR reads the build-up and loss of mass on a sensor chip optically.
For assay [2], the target named is gC1qR-ΔΔ, gC1qR deletion mutant that removed the flexible, negatively charged loops (UniProt Q07021). Nature of the assay: not stated; not published; oligomeric state of gC1qR-ΔΔ in solution and in the crystal.

As usually defined, the stoichiometry N is the number of molecules, sites or subunits per partner or assembly.

gC1qR-ΔΔ, gC1qR deletion mutant that removed the flexible, negatively charged loops (from UniProt Q07021 74-282) (receptor), sequence (Q07021 74-282, stated change not applied): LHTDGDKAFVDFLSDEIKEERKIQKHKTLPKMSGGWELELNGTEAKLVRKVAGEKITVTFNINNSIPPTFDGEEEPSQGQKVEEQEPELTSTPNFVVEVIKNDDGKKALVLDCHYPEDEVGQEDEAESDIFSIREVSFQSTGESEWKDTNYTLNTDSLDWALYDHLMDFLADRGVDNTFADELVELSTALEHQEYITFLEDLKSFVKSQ
gC1qR, wild type, mature recombinant (receptor for the globular heads of C1q), sequence (Q07021 74-282): as the sequence (Q07021 74-282, stated change not applied) above

As to “SARS-CoV-2 Membrane-Envelope fusion protein, recombinant”, the Kd in assay [1] came to 410 nM.
“gC1qR-ΔΔ, gC1qR deletion mutant that removed the flexible, negatively charged loops (from UniProt Q07021 74-282) (receptor)” registered a stoichiometry N in assay [2] of 3.

The values above are taken from article PMC8602850.
